Results reported in patent US20240409635A1 (VIBRANT PHARMA, published 2024).
Substitutions are numbered along the chain they refer to.

Columns and labels:
[1] = molecular target: epidermal growth factor receptor (EGFR) on human tumor cells (human, UniProt P00533 25-1210); assay: cell-based or functional assay
[2] = molecular target: T1, recombinant human tumor antigen CEA (CEACAM-5/CD66e, ACRO systems, CE5-H5226) (human, UniProt P06731 35-685); assay: BLI, antibody on AHC sensor, antigen as analyte
T1 construct: Bought
T1 sequence (looked up): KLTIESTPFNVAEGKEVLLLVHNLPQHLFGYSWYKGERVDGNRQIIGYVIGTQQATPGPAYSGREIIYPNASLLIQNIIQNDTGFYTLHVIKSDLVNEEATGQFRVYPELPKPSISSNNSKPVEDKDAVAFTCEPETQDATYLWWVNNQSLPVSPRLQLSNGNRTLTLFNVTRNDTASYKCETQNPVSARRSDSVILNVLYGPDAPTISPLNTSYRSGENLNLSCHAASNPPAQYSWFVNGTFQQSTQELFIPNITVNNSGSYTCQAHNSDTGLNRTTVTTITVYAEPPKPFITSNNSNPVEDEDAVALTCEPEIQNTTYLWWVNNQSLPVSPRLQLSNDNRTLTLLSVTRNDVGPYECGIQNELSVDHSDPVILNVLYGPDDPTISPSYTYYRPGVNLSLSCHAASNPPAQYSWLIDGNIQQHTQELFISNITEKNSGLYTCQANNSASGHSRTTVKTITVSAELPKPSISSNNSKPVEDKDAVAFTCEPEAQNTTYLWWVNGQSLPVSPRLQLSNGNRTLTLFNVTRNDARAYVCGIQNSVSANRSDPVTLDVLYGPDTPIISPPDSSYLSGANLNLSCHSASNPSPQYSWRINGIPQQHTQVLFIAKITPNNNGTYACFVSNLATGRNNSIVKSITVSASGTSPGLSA
Protocol: (§1) Antibodies were first captured onto an anti-human IgG Fc coated AHC biosensor (Anti-hIgG Fc, Sartorius, 18-5060). Antibodies were diluted to 5 μg/mL and 1.5 nm protein was coupled to the AHC sensor surface in 0.02% PBST.
(§2) After the sensor captures the antibodies, it binds and dissociates with different concentrations of analytes to obtain the KD value of the interaction. The experimental parameters are as follows: Baseline1: 60 s, Loading: 240 s, Baseline2: 180 s, Association: 240 s, Dissociation: 600 s, High sensitivity kinetics: 2 Hz. Kinetic constants were derived based on the rate equation for 1:1 Langmuir binding to obtain equilibrium dissociation constants (KD). The Data Analysis HT 12 software (Sartorius, 50-5029) was used to simultaneously fit binding and dissociation curves to calculate Kₒₙ and Koff. The affinity KD was calculated based on the below formula: KD=Koff/Kₒₙ.

[3] = molecular target: T2, recombinant human tumor antigen HER2 (ERBB2, ACRO systems, HE2-H5212) (human, UniProt P04626 23-652); assay: BLI, antibody on AHC sensor, antigen as analyte
T2 construct: Bought
Protocol: as §1, §2

[4] = molecular target: T3, recombinant human protein CD3ε/δ (ACRO systems, CDD-H52W1) (human, UniProt P07766 23-126; P04234 22-105); assay: BLI, antibody on AHC sensor, antigen as analyte
T3 construct: Bought heterodimer
T3 sequence (P07766 23-126, stated change not applied, chain 1 of 2): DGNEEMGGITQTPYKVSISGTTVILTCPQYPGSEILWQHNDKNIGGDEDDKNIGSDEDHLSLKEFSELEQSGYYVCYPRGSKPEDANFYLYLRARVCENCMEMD
T3 sequence (P04234 22-105, stated change not applied, chain 2 of 2): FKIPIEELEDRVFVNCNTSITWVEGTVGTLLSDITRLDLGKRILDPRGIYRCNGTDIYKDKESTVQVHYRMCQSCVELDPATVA
Protocol: as §1, §2

[5] = molecular target: T4, recombinant human CD3ε/δ protein (ACRO systems, CDD-H52W1) (human, UniProt P07766 23-126; P04234 22-105); assay: BLI, antibody captured on AHC sensor
T4 construct: Bought reagent
T4 sequence (P07766 23-126, stated change not applied, chain 1 of 2): as the sequence (P07766 23-126, stated change not applied, chain 1 of 2) above
T4 sequence (P04234 22-105, stated change not applied, chain 2 of 2): as the sequence (P04234 22-105, stated change not applied, chain 2 of 2) above
Protocol: as §1
as §2, with “it is used to bind” for “it binds”, “and dissociate” for “and dissociates”, “calculate Kₒₙ,” for “calculate Kₒₙ”

B1: EGFR-BsAb bispecific control antibody (anti-CD3 TA1 Fab and EGFR VHH) (bispecific antibody, human IgG4 S228P, kappa, F234A L235A)
heavy: EVKLLESGGGLVQPKGSLKLSCAASGFTFNTYAMNWVRQAPGKGLEWVARIRSKYNNYATYYADSVKDRFTISRDDSQSILYLQMNNLKTEDTAMYYCVRHGNFGNSYVSWFAYWGQGTLVTVSSASTKGPSVFPLAPCSRSTSESTAALGCLVKDYFPEPVTVSWNSGALTSGVHTFPAVLQSSGLYSLSSVVTVPSSSLGTKTYTCNVDHKPSNTKVDKRVESKYGPPCPPCPAPEAAGGPSVFLFPPKPKDTLMISRTPEVTCVVVDVSQEDPEVQFNWYVDGVEVHNAKTKPREEQFNSTYRVVSVLTVLHQDWLNGKEYKCKVSNKGLPSSIEKTISKAKGQPREPQVYTLPPCQEEMTKNQVSLWCLVKGFYPSDIAVEWESNGQPENNYKTTPPVLDSDGSFFLYSRLTVDKSRWQEGNVFSCSVMHEALHNHYTQKSLSLSL
chain: QVQLQESGGGSVQAGGSLKLSCAASGRGFSRYAMGWFRQAPGQDREFVATISWTNSTDYADSVKGRFAISRDNAKNTAYLQMNSLKPEDTAVYYCAADKWASSTRSIDYDYWGQGIQVTVSSESKYGPPCPPCPAPEAAGGPSVFLFPPKPKDTLMISRTPEVTCVVVDVSQEDPEVQFNWYVDGVEVHNAKTKPREEQFNSTYRVVSVLTVLHQDWLNGKEYKCKVSNKGLPSSIEKTISKAKGQPREPQVCTLPPSQEEMTKNQVSLSCAVKGFYPSDIAVEWESNGQPENNYKTTPPVLDSDGSFFLVSRLTVDKSRWQEGNVFSCSVMHEALHNRFTQKSLSLSL
light: QAVVTQESALTTSPGETVTLTCRSSTGAVTTSNYANWVQEKPDHLFTGLIGGTNKRAPGVPARFSGSLIGDKAALTITGAQTEDEAIYFCALWYSNLWVFGGGTKVEIKRTVAAPSVFIFPPSDEQLKSGTASVVCLLNNFYPREAKVQWKVDNALQSGNSQESVTEQDSKDSTYSLSSTLTLSKADYEKHKVYACEVTHQGLSSPVTKSFNRGEC
[1]
  T cell mediated killing EC50, H-1975 (EGFR+c-Met+): 0.00032 nM
  T cell mediated killing EC50, HT-29 (EGFR+c-Met+): 0.000387 nM
  T cell mediated killing EC50, OSRC2 (EGFR+++c-Met+): 0.00245 nM
  T cell mediated killing EC50, UT33A (EGFR+++c-Met+++): 0.000398 nM
  T cell mediated killing EC50, UT44 (EGFR+++c-Met++): 0.000154 nM

B2: HER2-BsAb (CD3 TA1-Fab x HER2 VHH bispecific control antibody) (bispecific antibody, human IgG4 S228P, kappa, F234A L235A)
heavy: B1 heavy
chain: QVQLVQSGGGLVQAGGSLRLSCAASGRTFSSYAMAWFRQAPGKEREFVAAISWSGANIYVADSVKGRFTISRDNAKDTVYLQMNSLKPEDTAVYYCAVKLGFAPVEERQYDYWGQGTQVTVSSESKYGPPCPPCPAPEAAGGPSVFLFPPKPKDTLMISRTPEVTCVVVDVSQEDPEVQFNWYVDGVEVHNAKTKPREEQFNSTYRVVSVLTVLHQDWLNGKEYKCKVSNKGLPSSIEKTISKAKGQPREPQVCTLPPSQEEMTKNQVSLSCAVKGFYPSDIAVEWESNGQPENNYKTTPPVLDSDGSFFLVSRLTVDKSRWQEGNVFSCSVMHEALHNRFTQKSLSLSL
light: B1 light
[2]
  koff: 0.000391 s⁻¹
  kon: 877000 M⁻¹ s⁻¹
[3]
  Kd: 98.4 nM
  koff: 0.0126 s⁻¹
  kon: 128000 M⁻¹ s⁻¹
[4]
  Kd: 1.51 nM
  koff: 0.000386 s⁻¹
  kon: 256000 M⁻¹ s⁻¹

B3: unilateral CD3/CEA/HER2 trispecific antibody 610 (other)
chain 1: EVQLVESGGGFVQAGESLTLSCTSSTLTFTPYRMAWYRQAPGKQRDLVADISSGDGRTTNYADFAKGRFTISRDNIKNTVFLRMTNLKPEDTAVYYCNTFVSFVGIARSWGQGTQVTVSSESKYGPPCPPCPAPEAAGGPSVFLFPPKPKDTLMISRTPEVTCVVVDVSQEDPEVQFNWYVDGVEVHNAKTKPREEQFNSTYRVVSVLTVLHQDWLNGKEYKCKVSNKGLPSSIEKTISKAKGQPREPQVYTLPPCQEEMTKNQVSLWCLVKGFYPSDIAVEWESNGQPENNYKTTPPVLDSDGSFFLYSRLTVDKSRWQEGNVFSCSVMHEALHNHYTQKSLSLSL
chain 2: B1 heavy with Y354C, C359S, W371S, L373A, Y412V, H440R, Y441F
chain 3: QVQLVQSGGGLVQAGGSLRLSCAASGRTFSSYAMAWFRQAPGKEREFVAAISWSGANIYVADSVKGRFTISRDNAKDTVYLQMNSLKPEDTAVYYCAVKLGFAPVEERQYDYWGQGTQVTVSSGGGGSGGGGSQAVVTQESALTTSPGETVTLTCRSSTGAVTTSNYANWVQEKPDHLFTGLIGGTNKRAPGVPARFSGSLIGDKAALTITGAQTEDEAIYFCALWYSNLWVFGGGTKVEIKRTVAAPSVFIFPPSDEQLKSGTASVVCLLNNFYPREAKVQWKVDNALQSGNSQESVTEQDSKDSTYSLSSTLTLSKADYEKHKVYACEVTHQGLSSPVTKSFNRGEC
[2]
  Kd: 0.153 nM
  koff: 8.05e-05 s⁻¹
  kon: 525000 M⁻¹ s⁻¹
[3]
  Kd: 53.5 nM
  koff: 0.00914 s⁻¹
  kon: 171000 M⁻¹ s⁻¹
[4]
  Kd: 1.47 nM
  koff: 0.000402 s⁻¹
  kon: 273000 M⁻¹ s⁻¹

B4: unilateral CD3/CEA/HER2 trispecific antibody 612 (other)
chain 1: B3 chain 1
chain 2: QVQLVQSGGGLVQAGGSLRLSCAASGRTFSSYAMAWFRQAPGKEREFVAAISWSGANIYVADSVKGRFTISRDNAKDTVYLQMNSLKPEDTAVYYCAVKLGFAPVEERQYDYWGQGTQVTVSSGGGGSGGGGSEVKLLESGGGLVQPKGSLKLSCAASGFTFNTYAMNWVRQAPGKGLEWVARIRSKYNNYATYYADSVKDRFTISRDDSQSILYLQMNNLKTEDTAMYYCVRHGNFGNSYVSWFAYWGQGTLVTVSSASTKGPSVFPLAPCSRSTSESTAALGCLVKDYFPEPVTVSWNSGALTSGVHTFPAVLQSSGLYSLSSVVTVPSSSLGTKTYTCNVDHKPSNTKVDKRVESKYGPPCPPCPAPEAAGGPSVFLFPPKPKDTLMISRTPEVTCVVVDVSQEDPEVQFNWYVDGVEVHNAKTKPREEQFNSTYRVVSVLTVLHQDWLNGKEYKCKVSNKGLPSSIEKTISKAKGQPREPQVCTLPPSQEEMTKNQVSLSCAVKGFYPSDIAVEWESNGQPENNYKTTPPVLDSDGSFFLVSRLTVDKSRWQEGNVFSCSVMHEALHNRFTQKSLSLSL
chain 3: B1 light
[2]
  Kd: 0.193 nM
  koff: 0.000105 s⁻¹
  kon: 542000 M⁻¹ s⁻¹
[3]
  Kd: 108 nM
  koff: 0.0122 s⁻¹
  kon: 113000 M⁻¹ s⁻¹
[4]
  Kd: 1.77 nM
  koff: 0.000682 s⁻¹
  kon: 386000 M⁻¹ s⁻¹

B5: unilateral CD3/CEA/HER2 trispecific antibody 611 (other)
chain 1: B4 chain 2 with C487Y, S492C, S504W, A506L, V545Y, R573H, F574Y
chain 2: B3 chain 1 with Y251C, C256S, W268S, L270A, Y309V, H337R, Y338F
chain 3: B1 light
[2]
  Kd: 0.195 nM
  koff: 0.000108 s⁻¹
  kon: 553000 M⁻¹ s⁻¹
[3]
  Kd: 105 nM
  koff: 0.0116 s⁻¹
  kon: 111000 M⁻¹ s⁻¹
[4]
  Kd: 1.77 nM
  koff: 0.000727 s⁻¹
  kon: 410000 M⁻¹ s⁻¹

B6: CEA-BsAb bispecific control antibody (TA1-Fab CD3 x CEA VHH) (bispecific antibody, human IgG4 S228P, kappa, F234A L235A)
heavy: B1 heavy
chain: B3 chain 1 with Y251C, C256S, W268S, L270A, Y309V, H337R, Y338F
light: B1 light
[5]
  Kd: 0.491 nM
  koff: 0.000236 s⁻¹
  kon: 481000 M⁻¹ s⁻¹
